Data as given in patent US8785185B2, “Differentiation of human embryonic stem cells” (Janssen Biotech, Inc., priority 2009, dated 2014).

What was measured:
Type in all cases: cell-based
[1] = system: human embryonic stem cell line H1; assay: Real-time PCR of pancreatic markers at stage 3 day 4, Treatments 1-3 (Table 1); details: normalized to treatment 1, stage 3 treatment for four days
Method: (§1) RPMI medium (Catalogue #22400, Invitrogen, Ca) supplemented with 2% BSA (Catalog #152401, MP Biomedical, Ohio), and 100 ng/ml activin A (R&D Systems, MN) plus 20 ng/ml WNT-3a (Catalog #1324-WN-002, R&D Systems, MN) plus 8 ng/ml of bFGF (Catalog #100-18B, PeproTech, NJ), for one day followed by treatment with RPMI media supplemented with 2% BSA and 100 ng/ml activin A plus 8 ng/ml of bFGF for an additional two days (Stage 1), then • b. DMEM/F12 (Catalogue #11330, Invitrogen, Ca)+2% BSA+50 ng/ml FGF7 for three days (Stage 2), then • c. Either Treatment 1: DMEM (high glucose)+1% B27 (Invitrogen, CA)+50 ng/ml FGF7, 0.25 μM Cyclopamine-KAAD, 2 μM retinoic acid (RA) and 100 ng/ml of Noggin for four days, or • d. Treatment 2: DMEM (high glucose)+1% B27 (Invitrogen, CA)+50 ng/ml FGF7, 0.25 μM Cyclopamine-KAAD, 2 μM retinoic acid (RA), 100 ng/ml of Noggin, 20 ng/ml activin A, for four days, or • e. Treatment 3: DMEM (high glucose)+1% B27 (Invitrogen, CA)+50 ng/ml FGF7, 0.25 μM Cyclopamine-KAAD, 2 μM retinoic acid (RA), 100 ng/ml of Noggin, 1 μM ALK5 inhibitor II, for four days.
(§2) Cultures were sampled in duplicate on stage 3 day 4, and analyzed for expression of pancreatic markers using real-time PCR. Cultures also were fixed in parallel for immunofluorescence analysis.

[2] = system: human embryonic stem cell line H1; assay: Immunofluorescence analysis of marker expression at stage 3 day 4 (FIG. 2, FIG. 3)
Method: as §1, §2
Treatment 1 (FGF7, retinoic acid and Noggin) induced the expression of NKX6.1 and NGN3.
This is in contrast with PDX1 expressing cells generated by using DMEM/F12 supplemented with 1% B27 (Invitrogen, CA)+50 ng/ml FGF7, 0.25 μM Cyclopamine-KAAD, 2 μM retinoic acid (RA), 100 ng/ml of Noggin, 20 ng/ml activin A, wherein most PDX1 expressing cells also expressed CDX2.

[3] = system: human embryonic stem cell line H1; assay: Real-time PCR of pancreatic markers at stage 3 day 4, activin A 20 or 50 ng/ml added at stage 3 (FIG. 1); details: 20 or 50 ng/ml activin A with FGF7, cyclopamine-KAAD, retinoic acid, Noggin
Method: Briefly, cells of the human embryonic stem cell line H1 were cultured on MATRIGEL™ (1:30 dilution) coated dishes and RPMI medium supplemented with 2% BSA, 100 ng/ml activin A, 20 ng/ml WNT-3a, 8 ng/ml of bFGF for one day, followed by treatment with RPMI media supplemented with 2% BSA, 100 ng/ml activin A, 8 ng/ml of bFGF for an additional two days (Stage 1), then • a. DMEM/F12+2% BSA+50 ng/ml FGF7+0.25 μM Cyclopamine-KAAD for three days (Stage 2), then • b. DMEM-High glucose+1% B27+50 ng/ml FGF7+0.25 μM Cyclopamine-KAAD+2 μM Retinoic acid (RA)+100 ng/ml of Noggin+20 ng/ml activin A or 50 ng/ml activin A for four days (Stage 3).
As a control, separate populations of cells were treated with DMEM High glucose, supplemented with 1% B27, 50 ng/ml FGF7, 0.25 μM Cyclopamine-KAAD, 2 μM retinoic acid (RA), and 100 ng/ml of Noggin.
Cultures were sampled in duplicate on stage 3 day 4, and analyzed for expression of pancreatic markers using real-time PCR.
A down-regulation of NGN3 expression was also observed in the cells at stage 3 day 4.

Question: With `Cc1cccc(-c2[nH]ncc2-c2ccc3ncccc3n2)n1` [ALK5 inhibitor II] as the molecule, how does the “relative expression level of NKX6.1” value [1] read?
Answer: The value was “decrease”.

Question: What about the “relative expression level of PDX1” value [1] of the same molecule?
Answer: Its value is “No significant impact”.

Question: What about the “expression of NGN3 / number of NGN3 expressing cells” value [2] of the same molecule?
Answer: Its value is “significantly increased”.

B1: activin A (protein, UniProt P08476 311-426, looked up)
Inhibin beta A chain: GLECDGKVNICCKKQFFVSFKDIGWNDWIIAPSGYHANYCEGECPSHIAGTSGSSLSFHSTVINHYRMRGHSPFANLKSCCVPTKLRPMSMLYYDDGQNIIKKDIQNMIVEECGCS
modifications: Inhibin beta A chain
notes: a member of the TGF-β superfamily (R&D Systems)
Question: What does the source list for B1?
Answer: expression of NGN3 / number of NGN3 expressing cells [2]: blocked; expression of NKX6.1 / number of NKX6.1 expressing cells [2]: significantly increased; NGN3 expression [3]: down-regulation; NKX6.1 expression ([3]; real-time PCR, versus cells receiving no activin A): increase
